Measured values taken from patent publication US5618675A, “Methods and compositions for detecting lipopolysaccharides using CAP18 fragments” (Panorama Research, Inc., dated 1997).

Experiments:
[1] = Anti-coagulant activity of human RNIP (preliminary studies); type: biochemical
encapsulated E. coli = details: cited from earlier work
[2] = test system: rough mutant strain of Proteus mirabilis; details: cited from earlier work
[3] = test system: wild-type smooth Proteus mirabilis; details: cited from earlier work
[4] = test system: galactosamine-sensitized mice; type: in vivo; details: CAP18 40 μg IP alone, no galactosamine, no Re-LPS
Excerpt: Galactosamine sensitizes mice to the lethal effects of LPS by a factor 1000 or more. CAP18 and LPS were mixed and injected IP into sensitized mice. CAP18 can neutralize the lethal effects of LPS in this model of endotoxemia (see Table 8).

human mononuclear cells = test: LPS-induced tissue factor by human mononuclear cells; type: cell-based; details: for Δ Units (%): LPS alone 100
Protocol: Human mononuclear cells were separated from citrated peripheral blood by centrifugation over Sodium-metrizoate-Ficoll (lymphocyte Separation Medium, Japan Antibody Institute, Gumma). The resulting mixed mononuclear cell suspension was washed 3 times with RPMI 1640 media. Cell suspension (1×10^6 /ml) was stimulated with LPS for 16 to 18 hr.
Veronal buffered saline (VBS) was added to the cell pellet, lysed by 3 cycles of freeze/thaw and sonicated for 10 sec with a hand-held sonicator microbe (Handy Sonic, model UR-20P, Tomy Seiko LTD, Tokyo). Tissue factor activity was tested in modified unactivated partial thromboplastin time (7). One tenth ml of cell lysate (1×10^6 /ml) was preincubated with mouse plasma at 37° C. for 3 min. Then 0.1 ml of 25 mM-CaCl2 which contains phospholipid was added to the mixture and clotting time was measured using a fibrometer (Bio Quest Division, Becton Dickinson, Cokeysville, USA). A standard curve obtained from serial two-fold dilutions of rabbit brain thromboplastic (Simplastin, Ono Pharmaceutical Co.) was used to transpose tissue factor activity into arbitrary tissue factor units (1 μg/ml) suspension of rabbit brain was assigned a value of 1,000 units).
The mean tissue factor units+standard error was determined from three to four samples. Student's t test for unpair data was used to determine the statistically significant differences. A two-tailed P value of <0.05 was considered significant.
S. minnesota SmoothLPS (2 μg/ml) was preincubated with equal volume of
each LPSbinding protein (28HA) at 37° C. for 45 minutes, and the
mixture was added to the cells and cultured for 16 hours.

[5] = first experiment, LPS 0.1 μg/ml
[6] = second experiment, LPS 0.1 μg/ml

human RNIP: human RNIP polypeptide comprising amino acids 134 to 170 of SEQ ID NO:2, Merrifield solid phase synthesis (LLGDFFRKSKEKIGKEFKRIVQRIKDFLRNLVPRTES)
anti-coagulant activity [1]: lacks significant anti-coagulant activity

B1: BPI55: holoprotein of bactericidal permeability increasing protein (BPI) (protein, UniProt P17213 32-487, looked up)
Bactericidal …: VNPGVVVRISQKGLDYASQQGTAALQKELKRIKIPDYSDSFKIKHLGKGHYSFYSMDIREFQLPSSQISMVPNVGLKFSISNANIKISGKWKAQKRFLKMSGNFDLSIEGMSISADLKLGSNPTSGKPTITCSSCSSHINSVHVHISKSKVGWLIQLFHKKIESALRNKMNSQVCEKVTNSVSSELQPYFQTLPVMTKIDSVAGINYGLVAPPATTAETLDVQMKGEFYSENHHNPPPFAPPVMEFPAAHDRMVYLGLSDYFFNTAGLVYQEAGVLKMTLRDDMIPKESKFRLTTKFFGTFLPEVAKKFPNMKIQIHVSASTPPHLSVQPTGLTFYPAVDVQAFAVLPNSSLASLFLIGMHTTGSMEVSAESNRLVGELKLDRLLLELKHSNIGPFPVELLQDIMNYIVPILVLPRVNEKLQKGFPLPTPARVQLYNVVLQPHQNFLLFGADVVYK
growth inhibitory activity, reduction over control (encapsulated E. coli): about 100 fold
growth inhibition [2]: inhibited the growth
growth inhibition [3]: only the rBPI23 inhibited growth

B2: CAP18: cationic protein obtained from rabbit granulocytes, calculated molecular weight 16.6 kD, SEQ ID NO:4 (protein)
chain: METHKHGPSLAWWSLLLLLLGLLMPPAIAQDLTYREAVLRAVDAFNQQSSEANLYRLLSMDPQQLEDAKPYTPQPVSFTVKETECPRTTWKLPEQCDFKEDGLVKRCVGTVTRYQAWDSFDIRCNRAQESPEPTGLRKRLRKFRNKIKEKLKKIGQKIQGLLPKLAPRTDY
Lethality (%) groups of 10 mice [4]: 0%
Inhibition (%) (human mononuclear cells; [5]): 30%
Tissue Factor, figure in parentheses (relative to unstimulated = 1.0) (human mononuclear cells; first experiment, LPS 0.1 μg/ml, LPS alone 16.6): 9.9
Δ Units (%) (human mononuclear cells; [5]): 70%
Δ Units (human mononuclear cells; first experiment, LPS 0.1 μg/ml, LPS alone 17118): 12001
Tissue Factor (human mononuclear cells; first experiment, LPS 0.1 μg/ml, LPS alone 18214 ± 4192, RNIP 2 HA units, CAP-18 1 HA unit): 13097 ± 1946 Units × 10^3 /3.6 × 10^4 cells
Inhibition (%) (human mononuclear cells; [6]): 35%
Tissue Factor, figure in parentheses (relative to unstimulated = 1.0) (human mononuclear cells; second experiment, LPS 0.1 μg/ml, LPS alone 14.7): 9.9
Δ Units (%) (human mononuclear cells; [6]): 65%
Δ Units (human mononuclear cells; second experiment, LPS 0.1 μg/ml, LPS alone 6726): 4366
Tissue Factor (human mononuclear cells; second experiment, LPS 0.1 μg/ml, LPS alone 7218 ± 264, HA units HP-1 4, HP-2 2, RNIP 2, CAP-18 1): 4858 ± 1963 Units × 10^3 /3.6 × 10^4 cells
Tissue Factor, figure in parentheses (relative to unstimulated = 1.0) (human mononuclear cells; second experiment, no LPS): 1.2
Δ Units (human mononuclear cells; second experiment, no LPS): 235
Tissue Factor (human mononuclear cells; second experiment, no LPS, unstimulated 492 ± 75): 583 ± 178 Units × 10^3 /3.6 × 10^4 cells
